From paper PMC2115384 (The Journal of Cell Biology, 1989)

Columns and labels:
Test in all cases: native gel or EMSA
[1] = target: ankyrin solubilized from MDCK cells (dog (endogenous in MDCK))
[2] = target: fodrin solubilized from MDCK cells (alpha- and beta-subunits) (dog (endogenous in MDCK))
[3] = target: purified human erythrocyte spectrin heterotetramers (human, UniProt P02549 1-2419; P11277 1-2137)
Chain of purified human erythrocyte spectrin heterotetramers (P02549 whole entry, chain 1 of 2): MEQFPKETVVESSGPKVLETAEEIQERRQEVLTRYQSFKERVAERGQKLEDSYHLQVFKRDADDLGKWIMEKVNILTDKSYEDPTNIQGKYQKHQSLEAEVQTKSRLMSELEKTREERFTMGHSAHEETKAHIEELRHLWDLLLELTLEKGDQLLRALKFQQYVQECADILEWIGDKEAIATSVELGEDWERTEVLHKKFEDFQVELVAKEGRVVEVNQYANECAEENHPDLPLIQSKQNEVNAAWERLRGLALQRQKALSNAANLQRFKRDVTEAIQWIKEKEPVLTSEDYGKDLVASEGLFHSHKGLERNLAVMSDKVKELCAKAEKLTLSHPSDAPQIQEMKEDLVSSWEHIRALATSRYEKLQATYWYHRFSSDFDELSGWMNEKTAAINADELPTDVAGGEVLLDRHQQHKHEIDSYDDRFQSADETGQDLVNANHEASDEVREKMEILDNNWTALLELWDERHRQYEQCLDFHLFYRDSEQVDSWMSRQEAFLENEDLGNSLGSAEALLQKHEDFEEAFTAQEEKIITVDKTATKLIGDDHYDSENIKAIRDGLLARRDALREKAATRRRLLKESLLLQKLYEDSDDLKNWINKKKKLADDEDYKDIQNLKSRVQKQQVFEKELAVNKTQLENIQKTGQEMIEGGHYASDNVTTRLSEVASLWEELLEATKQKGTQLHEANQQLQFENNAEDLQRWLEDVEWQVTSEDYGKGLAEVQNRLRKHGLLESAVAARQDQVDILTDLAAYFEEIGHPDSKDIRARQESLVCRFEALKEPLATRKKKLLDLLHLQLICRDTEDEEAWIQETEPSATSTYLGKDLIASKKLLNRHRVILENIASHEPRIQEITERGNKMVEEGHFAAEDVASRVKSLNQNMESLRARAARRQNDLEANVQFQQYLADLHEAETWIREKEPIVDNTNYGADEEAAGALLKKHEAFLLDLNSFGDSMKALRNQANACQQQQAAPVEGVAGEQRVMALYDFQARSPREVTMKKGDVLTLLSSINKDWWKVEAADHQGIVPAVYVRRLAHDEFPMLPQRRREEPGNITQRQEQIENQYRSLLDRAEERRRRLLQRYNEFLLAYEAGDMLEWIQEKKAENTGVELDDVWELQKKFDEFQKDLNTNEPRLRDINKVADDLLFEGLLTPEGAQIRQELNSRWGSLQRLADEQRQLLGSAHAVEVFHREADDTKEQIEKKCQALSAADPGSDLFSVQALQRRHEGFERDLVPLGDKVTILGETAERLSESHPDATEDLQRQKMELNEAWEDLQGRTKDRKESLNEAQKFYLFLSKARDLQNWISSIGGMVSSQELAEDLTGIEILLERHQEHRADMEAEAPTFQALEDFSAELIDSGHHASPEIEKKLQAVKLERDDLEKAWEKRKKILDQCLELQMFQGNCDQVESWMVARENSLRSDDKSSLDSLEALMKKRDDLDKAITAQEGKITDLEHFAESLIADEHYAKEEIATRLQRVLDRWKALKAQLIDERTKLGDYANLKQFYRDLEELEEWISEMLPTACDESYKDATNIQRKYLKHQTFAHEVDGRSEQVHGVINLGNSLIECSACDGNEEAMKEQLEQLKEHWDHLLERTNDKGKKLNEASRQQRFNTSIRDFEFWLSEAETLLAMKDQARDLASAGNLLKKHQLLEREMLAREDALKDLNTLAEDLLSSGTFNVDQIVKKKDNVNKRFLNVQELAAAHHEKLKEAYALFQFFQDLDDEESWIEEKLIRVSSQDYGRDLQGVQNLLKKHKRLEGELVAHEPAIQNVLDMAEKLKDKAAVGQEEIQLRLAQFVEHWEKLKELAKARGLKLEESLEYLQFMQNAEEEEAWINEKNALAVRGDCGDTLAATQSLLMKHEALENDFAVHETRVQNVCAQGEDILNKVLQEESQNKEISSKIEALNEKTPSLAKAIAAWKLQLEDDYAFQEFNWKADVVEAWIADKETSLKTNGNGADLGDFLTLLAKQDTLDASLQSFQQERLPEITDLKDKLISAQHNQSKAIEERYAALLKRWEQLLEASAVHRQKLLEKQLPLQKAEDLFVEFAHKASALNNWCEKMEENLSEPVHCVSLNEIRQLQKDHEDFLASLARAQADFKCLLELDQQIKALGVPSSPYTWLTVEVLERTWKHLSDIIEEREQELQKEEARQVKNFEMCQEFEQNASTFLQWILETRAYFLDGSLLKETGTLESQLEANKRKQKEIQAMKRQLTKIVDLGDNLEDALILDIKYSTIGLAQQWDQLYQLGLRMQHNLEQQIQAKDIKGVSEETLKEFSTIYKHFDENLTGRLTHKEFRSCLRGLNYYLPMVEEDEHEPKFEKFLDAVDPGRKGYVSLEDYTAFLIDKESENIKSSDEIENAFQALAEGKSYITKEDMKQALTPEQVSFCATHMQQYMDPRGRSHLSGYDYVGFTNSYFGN
Chain of purified human erythrocyte spectrin heterotetramers (P11277 whole entry, chain 2 of 2): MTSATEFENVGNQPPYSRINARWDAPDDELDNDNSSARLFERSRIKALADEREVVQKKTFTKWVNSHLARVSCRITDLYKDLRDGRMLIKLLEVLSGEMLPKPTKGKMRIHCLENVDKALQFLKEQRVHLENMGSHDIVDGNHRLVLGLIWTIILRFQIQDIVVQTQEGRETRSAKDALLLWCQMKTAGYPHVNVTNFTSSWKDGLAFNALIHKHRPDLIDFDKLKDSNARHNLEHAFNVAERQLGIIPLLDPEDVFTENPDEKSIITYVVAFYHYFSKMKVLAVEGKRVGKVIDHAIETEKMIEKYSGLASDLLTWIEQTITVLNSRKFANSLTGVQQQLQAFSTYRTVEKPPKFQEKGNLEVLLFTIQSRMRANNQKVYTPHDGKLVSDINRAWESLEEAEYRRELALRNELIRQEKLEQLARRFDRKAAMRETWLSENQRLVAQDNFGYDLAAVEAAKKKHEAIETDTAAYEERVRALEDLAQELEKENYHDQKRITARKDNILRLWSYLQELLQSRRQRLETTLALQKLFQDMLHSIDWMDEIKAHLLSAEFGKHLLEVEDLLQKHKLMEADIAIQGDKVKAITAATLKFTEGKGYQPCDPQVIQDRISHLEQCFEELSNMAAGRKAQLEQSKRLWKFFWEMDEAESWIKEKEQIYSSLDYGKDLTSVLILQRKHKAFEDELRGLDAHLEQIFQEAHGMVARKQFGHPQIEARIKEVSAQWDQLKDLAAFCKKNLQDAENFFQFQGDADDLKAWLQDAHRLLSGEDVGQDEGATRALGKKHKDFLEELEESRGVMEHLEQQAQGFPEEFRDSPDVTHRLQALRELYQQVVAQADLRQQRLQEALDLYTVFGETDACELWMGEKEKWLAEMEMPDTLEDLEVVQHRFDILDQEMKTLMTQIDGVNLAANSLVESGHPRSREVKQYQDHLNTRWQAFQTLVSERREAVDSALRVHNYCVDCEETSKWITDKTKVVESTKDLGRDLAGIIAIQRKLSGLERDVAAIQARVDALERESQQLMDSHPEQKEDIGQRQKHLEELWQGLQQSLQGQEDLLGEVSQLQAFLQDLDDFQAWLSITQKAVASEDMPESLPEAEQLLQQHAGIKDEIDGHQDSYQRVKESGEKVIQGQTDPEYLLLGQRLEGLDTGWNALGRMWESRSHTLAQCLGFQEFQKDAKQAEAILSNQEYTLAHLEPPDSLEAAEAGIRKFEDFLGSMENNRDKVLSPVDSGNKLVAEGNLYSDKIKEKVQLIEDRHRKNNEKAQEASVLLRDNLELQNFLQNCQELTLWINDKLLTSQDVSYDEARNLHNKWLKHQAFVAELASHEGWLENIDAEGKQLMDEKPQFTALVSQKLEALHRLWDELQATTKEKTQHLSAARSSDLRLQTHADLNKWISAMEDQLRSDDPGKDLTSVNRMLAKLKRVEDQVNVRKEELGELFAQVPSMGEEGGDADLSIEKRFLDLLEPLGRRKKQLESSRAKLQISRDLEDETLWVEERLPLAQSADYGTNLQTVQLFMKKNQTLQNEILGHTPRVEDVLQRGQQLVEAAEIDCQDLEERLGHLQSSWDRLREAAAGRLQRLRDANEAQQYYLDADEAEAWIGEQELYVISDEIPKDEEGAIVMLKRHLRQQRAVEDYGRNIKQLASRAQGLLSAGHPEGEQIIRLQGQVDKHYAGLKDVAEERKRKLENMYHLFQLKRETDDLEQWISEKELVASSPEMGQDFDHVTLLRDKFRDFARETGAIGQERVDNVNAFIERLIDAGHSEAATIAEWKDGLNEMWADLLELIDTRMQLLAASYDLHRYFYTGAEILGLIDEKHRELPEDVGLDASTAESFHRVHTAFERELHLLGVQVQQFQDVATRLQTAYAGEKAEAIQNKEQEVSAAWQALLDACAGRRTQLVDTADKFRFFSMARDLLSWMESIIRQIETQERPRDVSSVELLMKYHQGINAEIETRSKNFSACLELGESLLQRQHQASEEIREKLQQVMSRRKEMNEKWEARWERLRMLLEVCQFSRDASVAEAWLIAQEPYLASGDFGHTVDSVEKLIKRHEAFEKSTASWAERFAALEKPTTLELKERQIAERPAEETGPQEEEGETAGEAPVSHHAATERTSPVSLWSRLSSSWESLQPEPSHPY

Row | percent of solubilized Na+,K+-ATPase comigrating with ankyrin and fodrin [1] [%] | percent of solubilized Na+,K+-ATPase comigrating with ankyrin and fodrin [2] [%] | binding result [3] | Molecule
1 | > 80 | > 80 |  | Na+,K+-ATPase solubilized from MDCK cells (alpha- and beta-subunits) (from UniProt P50997 1-1021; P06583 1-303) (complex)
2 |  |  | binds | purified human erythrocyte ankyrin (natural protein, UniProt P16157 1-1881, looked up) MPYSVGFREADAATSFLRAARSGNLDKALDHLRNGVDINTCNQNGLNGLHLASKEGHVKMVVELLHKEIILETTTKKGNTALHIAALAGQDEVVRELVNYGANVNAQSQKGFTPLYMAAQENHLEVVKFLLENGANQNVATEDGFTPLAVALQQGHENVVAHLINYGTKGKVRLPALHIAARNDDTRTAAVLLQNDPNPDVLSKTGFTPLHIAAHYENLNVAQLLLNRGASVNFTPQNGITPLHIASRRGNVIMVRLLLDRGAQIETKTKDELTPLHCAARNGHVRISEILLDHGAPIQAKTKNGLSPIHMAAQGDHLDCVRLLLQYDAEIDDITLDHLTPLHVAAHCGHHRVAKVLLDKGAKPNSRALNGFTPLHIACKKNHVRVMELLLKTGASIDAVTESGLTPLHVASFMGHLPIVKNLLQRGASPNVSNVKVETPLHMAARAGHTEVAKYLLQNKAKVNAKAKDDQTPLHCAARIGHTNMVKLLLENNANPNLATTAGHTPLHIAAREGHVETVLALLEKEASQACMTKKGFTPLHVAAKYGKVRVAELLLERDAHPNAAGKNGLTPLHVAVHHNNLDIVKLLLPRGGSPHSPAWNGYTPLHIAAKQNQVEVARSLLQYGGSANAESVQGVTPLHLAAQEGHAEMVALLLSKQANGNLGNKSGLTPLHLVAQEGHVPVADVLIKHGVMVDATTRMGYTPLHVASHYGNIKLVKFLLQHQADVNAKTKLGYSPLHQAAQQGHTDIVTLLLKNGASPNEVSSDGTTPLAIAKRLGYISVTDVLKVVTDETSFVLVSDKHRMSFPETVDEILDVSEDEGEELISFKAERRDSRDVDEEKELLDFVPKLDQVVESPAIPRIPCAMPETVVIRSEEQEQASKEYDEDSLIPSSPATETSDNISPVASPVHTGFLVSFMVDARGGSMRGSRHNGLRVVIPPRTCAAPTRITCRLVKPQKLSTPPPLAEEEGLASRIIALGPTGAQFLSPVIVEIPHFASHGRGDRELVVLRSENGSVWKEHRSRYGESYLDQILNGMDEELGSLEELEKKRVCRIITTDFPLYFVIMSRLCQDYDTIGPEGGSLKSKLVPLVQATFPENAVTKRVKLALQAQPVPDELVTKLLGNQATFSPIVTVEPRRRKFHRPIGLRIPLPPSWTDNPRDSGEGDTTSLRLLCSVIGGTDQAQWEDITGTTKLVYANECANFTTNVSARFWLSDCPRTAEAVNFATLLYKELTAVPYMAKFVIFAKMNDPREGRLRCYCMTDDKVDKTLEQHENFVEVARSRDIEVLEGMSLFAELSGNLVPVKKAAQQRSFHFQSFRENRLAMPVKVRDSSREPGGSLSFLRKAMKYEDTQHILCHLNITMPPCAKGSGAEDRRRTPTPLALRYSILSESTPGSLSGTEQAEMKMAVISEHLGLSWAELARELQFSVEDINRIRVENPNSLLEQSVALLNLWVIREGQNANMENLYTALQSIDRGEIVNMLEGSGRQSRNLKPDRRHTDRDYSLSPSQMNGYSSLQDELLSPASLGCALSSPLRADQYWNEVAVLDAIPLAATEHDTMLEMSDMQVWSAGLTPSLVTAEDSSLECSKAEDSDATGHEWKLEGALSEEPRGPELGSLELVEDDTVDSDATNGLIDLLEQEEGQRSEEKLPGSKRQDDATGAGQDSENEVSLVSGHQRGQARITHSPTVSQVTERSQDRLQDWDADGSIVSYLQDAAQGSWQEEVTQGPHSFQGTSTMTEGLEPGGSQEYEKVLVSVSEHTWTEQPEAESSQADRDRRQQGQEEQVQEAKNTFTQVVQGNEFQNIPGEQVTEEQFTDEQGNIVTKKIIRKVVRQIDLSSADAAQEHEEVTVEGPLEDPSELEVDIDYFMKHSKDHTSTPNP
